Test results reported in PMC9282385, “Rapid self-test of unprocessed viruses of SARS-CoV-2 and its variants in saliva by portable wireless graphene biosensor”.

How the values were obtained:
[1] = target: SARS-CoV nucleocapsid protein (SARS-CoV, UniProt P59595 1-422); assay: […], room temperature; pH not stated; details: protein: commercial; chain copies: 2
SARS-CoV-2 spike RBD = SARS-CoV-2 spike RBD (SARS-CoV-2, UniProt P0DTC2 319-541)
SARS-CoV spike RBD = SARS-CoV spike RBD (SARS-CoV, UniProt P59594 306-527); assay: […], room temperature; pH not stated; details: protein: commercial

Sequence of SARS-CoV nucleocapsid protein (P59595 whole entry): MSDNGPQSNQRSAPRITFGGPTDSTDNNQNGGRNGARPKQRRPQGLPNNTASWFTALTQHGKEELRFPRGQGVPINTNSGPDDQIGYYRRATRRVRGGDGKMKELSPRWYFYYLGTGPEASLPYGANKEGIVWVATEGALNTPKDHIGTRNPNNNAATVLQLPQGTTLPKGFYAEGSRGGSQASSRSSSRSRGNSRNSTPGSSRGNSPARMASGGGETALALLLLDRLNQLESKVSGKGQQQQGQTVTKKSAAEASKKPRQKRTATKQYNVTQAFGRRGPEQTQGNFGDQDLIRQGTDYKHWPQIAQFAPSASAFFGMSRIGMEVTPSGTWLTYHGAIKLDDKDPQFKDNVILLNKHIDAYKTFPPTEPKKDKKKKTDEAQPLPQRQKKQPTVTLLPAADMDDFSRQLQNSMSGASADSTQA

Binder | binding result [1] | binding result (SARS-CoV-2 spike RBD) | binding result (SARS-CoV spike RBD)
Aptamer-N (structured_DNA) DNA: GCTGGATGTCGCTTACGACAATATTCCTTAGGGGCACCGCTACATTGACACATCCAGC | binds |  | 
Aptamer-S (structured_DNA) DNA: CAGCACCGACCTTGTGCTTTGGGAGTGCTGGTCCAAGGGCGTTAATGGACA |  | binds | binds
